From patent US20210355178A1 (published 2021) come the findings set out here.

The assay has as its target complement factor C3b (UniProt P01024 23-667; P01024 749-1663). The assay can be described thus: SPR; steady-state fit.

The Kd is a measure of binding affinity in units of concentration. Low readings indicate a tighter complex, high ones a looser complex.

complement factor C3b, sequence (P01024 23-667, chain 1 of 2): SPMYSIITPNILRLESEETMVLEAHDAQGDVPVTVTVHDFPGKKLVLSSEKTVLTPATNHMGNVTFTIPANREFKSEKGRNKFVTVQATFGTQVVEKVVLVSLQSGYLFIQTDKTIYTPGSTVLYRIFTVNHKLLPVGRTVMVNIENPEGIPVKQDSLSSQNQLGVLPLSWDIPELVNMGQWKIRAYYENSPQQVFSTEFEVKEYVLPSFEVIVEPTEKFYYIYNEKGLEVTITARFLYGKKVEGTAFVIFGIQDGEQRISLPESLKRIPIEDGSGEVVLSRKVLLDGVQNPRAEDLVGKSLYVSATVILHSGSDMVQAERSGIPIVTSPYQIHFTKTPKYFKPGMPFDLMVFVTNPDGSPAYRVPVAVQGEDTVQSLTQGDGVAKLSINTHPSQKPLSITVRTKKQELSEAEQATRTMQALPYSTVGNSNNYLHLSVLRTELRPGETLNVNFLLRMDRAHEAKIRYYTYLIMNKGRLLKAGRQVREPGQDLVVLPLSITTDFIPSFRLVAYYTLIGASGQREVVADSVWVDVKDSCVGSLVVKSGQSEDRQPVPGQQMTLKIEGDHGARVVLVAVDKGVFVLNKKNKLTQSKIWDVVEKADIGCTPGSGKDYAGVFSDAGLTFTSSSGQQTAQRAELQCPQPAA
complement factor C3b, sequence (P01024 749-1663, chain 2 of 2): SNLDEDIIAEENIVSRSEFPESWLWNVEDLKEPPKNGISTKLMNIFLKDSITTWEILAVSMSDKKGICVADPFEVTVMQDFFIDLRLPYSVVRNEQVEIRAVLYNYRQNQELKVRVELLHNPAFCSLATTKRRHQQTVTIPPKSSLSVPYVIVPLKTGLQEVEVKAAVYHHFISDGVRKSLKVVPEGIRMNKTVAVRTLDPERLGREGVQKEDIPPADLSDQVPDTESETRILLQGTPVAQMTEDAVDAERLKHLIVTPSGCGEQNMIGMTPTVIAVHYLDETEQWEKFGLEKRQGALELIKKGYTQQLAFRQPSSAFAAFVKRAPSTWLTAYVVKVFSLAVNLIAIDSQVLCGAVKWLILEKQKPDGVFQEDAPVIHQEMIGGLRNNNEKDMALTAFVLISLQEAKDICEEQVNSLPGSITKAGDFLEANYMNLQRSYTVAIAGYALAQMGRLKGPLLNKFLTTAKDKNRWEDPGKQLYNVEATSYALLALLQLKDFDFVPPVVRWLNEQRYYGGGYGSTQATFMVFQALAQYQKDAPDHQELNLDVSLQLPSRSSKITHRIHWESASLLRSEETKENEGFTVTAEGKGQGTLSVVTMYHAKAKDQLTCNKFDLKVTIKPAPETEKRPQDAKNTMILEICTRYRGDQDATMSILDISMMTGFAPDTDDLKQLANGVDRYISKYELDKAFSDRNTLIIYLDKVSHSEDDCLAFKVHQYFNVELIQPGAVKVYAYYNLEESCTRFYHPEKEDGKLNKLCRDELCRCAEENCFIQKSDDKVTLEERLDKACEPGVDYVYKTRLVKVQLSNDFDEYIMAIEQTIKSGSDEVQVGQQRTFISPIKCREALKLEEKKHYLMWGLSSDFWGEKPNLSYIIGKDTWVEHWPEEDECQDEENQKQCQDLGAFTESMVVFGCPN

B1: miniFH (designed binder)
chain: EDCNELPPRRNTEILTGSWSDQTYPEGTQAIYKCRPGYRSLGNIIMVCRKGEWVALNPLRKCQKRPCGHPGDTPFGTFTLTGGNVFEYGVKAVYTCNEGYQLLGEINYRECDTDGWTNDIPICEVVKCLPVTAPENGKIVSSAMEPDREYHFGQAVRFVCNSGYKIEGDEEMHCSDDGFWSKEKPKCVEISCKSPDVINGSPISQKIIYKENERFQYKCNMGYEYSERGDAVCTESGWRPLPSCEEAGGGGGGGGGGGGGKCGPPPPIDNGDITSFPLSVYAPASSVEYQCQNLYQLEGNKRITCRNGQWSEPPKCLHPCVISREIMENYNIALRWTAKQKLYSRTGESVEFVCKRGYRLSSRSHTLRTTCWDGKLEYPTCAKR
B1 had a Kd of 588 nM.

B2: miniFH-Fc (Fc fusion)
chain: EDCNELPPRRNTEILTGSWSDQTYPEGTQAIYKCRPGYRSLGNIIMVCRKGEWVALNPLRKCQKRPCGHPGDTPFGTFTLTGGNVFEYGVKAVYTCNEGYQLLGEINYRECDTDGWTNDIPICEVVKCLPVTAPENGKIVSSAMEPDREYHFGQAVRFVCNSGYKIEGDEEMHCSDDGFWSKEKPKCVEISCKSPDVINGSPISQKIIYKENERFQYKCNMGYEYSERGDAVCTESGWRPLPSCEEAGGGGGGGGGGGGGKCGPPPPIDNGDITSFPLSVYAPASSVEYQCQNLYQLEGNKRITCRNGQWSEPPKCLHPCVISREIMENYNIALRWTAKQKLYSRTGESVEFVCKRGYRLSSRSHTLRTTCWDGKLEYPTCAGPGGGGGPGCPAPELLGGPSVFLFPPKPKDTLMISRTPEVTCVVVDVSHEDPEVKFNWYVDGVEVHNAKTKPREEQYQSTYRVVSVLTVLHQDWLNGKEYKCKVSNKALPAPIEKTISKAKGQPREPQVYTLPPSREEMTKNQVSLTCLVKGFYPSDIAVEWESNGQPENNYKTTPPVLDSDGSFFLYSKLTVDKSRWQQGNVFSCSVMHEALHNHYTQKSLSLSPGGGGGGG
B2 showed a Kd of 300 nM.
